Measurements as given in US20220332795A1 (ARO BIOTHERAPEUTICS, published 2022).
Changes are numbered by the printed parent chain. Values belong to the binder of their own block, whether it stands above or below them.

How the values were obtained:
[1] = molecular target: T1, human CD71 extracellular domain (human, UniProt P02786 89-760, biotinylated); assay: solution ELISA screen (luminescence)
T1 construct: extracellular domain; also called hCD71; huCD71 ECD

CD71 apical domain [2] = molecular target: T2, CD71 apical domain (human, UniProt P02786 189-383, limits assumed); assay: solution ELISA screen (luminescence)
T2 construct: domain: apical domain

[3] = molecular target: T1, human CD71 extracellular domain; assay: solution ELISA screen, signal ratio to HSA control
CD71 apical domain [4] = molecular target: T2, CD71 apical domain; assay: solution ELISA screen, signal ratio to HSA control

T2 sequence (P02786 189-383 limits assumed): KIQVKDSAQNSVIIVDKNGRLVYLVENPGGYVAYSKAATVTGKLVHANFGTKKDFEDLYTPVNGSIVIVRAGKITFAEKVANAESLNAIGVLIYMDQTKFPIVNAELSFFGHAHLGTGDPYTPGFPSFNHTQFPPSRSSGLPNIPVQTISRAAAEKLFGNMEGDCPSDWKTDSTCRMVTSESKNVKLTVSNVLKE
T1 sequence (P02786 other isoform, or with tags, fused parts or gaps): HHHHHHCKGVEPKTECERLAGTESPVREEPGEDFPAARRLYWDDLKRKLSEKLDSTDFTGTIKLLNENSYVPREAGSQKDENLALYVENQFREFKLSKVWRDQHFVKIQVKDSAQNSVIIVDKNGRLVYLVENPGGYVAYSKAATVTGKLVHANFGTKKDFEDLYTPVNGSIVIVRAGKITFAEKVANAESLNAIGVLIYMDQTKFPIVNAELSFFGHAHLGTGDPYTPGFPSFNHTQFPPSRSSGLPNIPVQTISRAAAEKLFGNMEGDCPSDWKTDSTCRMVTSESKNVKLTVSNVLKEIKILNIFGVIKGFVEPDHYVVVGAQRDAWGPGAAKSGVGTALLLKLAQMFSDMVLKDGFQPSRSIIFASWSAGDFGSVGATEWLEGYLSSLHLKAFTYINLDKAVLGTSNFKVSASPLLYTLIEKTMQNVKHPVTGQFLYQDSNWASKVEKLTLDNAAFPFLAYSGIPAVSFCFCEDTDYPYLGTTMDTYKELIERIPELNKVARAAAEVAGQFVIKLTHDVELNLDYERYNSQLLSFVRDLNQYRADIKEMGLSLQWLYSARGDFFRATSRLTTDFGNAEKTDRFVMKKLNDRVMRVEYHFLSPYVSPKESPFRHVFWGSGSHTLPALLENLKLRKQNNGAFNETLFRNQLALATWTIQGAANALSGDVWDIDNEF

- RLU [1]: 1.73e+06 RLU
- RLU (CD71 apical domain [2]): 2.03e+06 RLU
- hCD71:HSA [3]: 24.6 ratio
- apical domain:HSA (CD71 apical domain [4]): 28.9 ratio
B1: SEQ ID NO 213 (designed binder, not shown: small tags and cut ends)
chain: MLPAPKNLVVSRVTEDSARLSWTAPDAAFDSFYIAYAEPRPDGEAILLGVPGSERSYDLTGLKPGTEYSVLIHGVKGGLLSSPLFTT

- RLU [1]: 2.77e+06 RLU
- RLU (CD71 apical domain [2]): 94800 RLU
- hCD71:HSA [3]: 23.6 ratio
- apical domain:HSA (CD71 apical domain [4]): 0.8 ratio
B2: SEQ ID NO 268 (designed binder, not shown: small tags and cut ends)
chain: B1 chain with L47Y, G49E

- RLU [1]: 3.29e+06 RLU
- RLU (CD71 apical domain [2]): 6.35e+06 RLU
- hCD71:HSA [3]: 164 ratio
- apical domain:HSA (CD71 apical domain [4]): 317 ratio
B3: SEQ ID NO 204 (designed binder, not shown: small tags and cut ends)
chain: MLPAPKNLVVSRVTEDSARLSWTAPDAAFDSFFIGYLEPQPPGEAILLWVPGSERSYDLTGLKPGTEYNVTIQGVKGGFPSQFTT

- RLU [1]: 1.08e+06 RLU
- RLU (CD71 apical domain [2]): 95400 RLU
- hCD71:HSA [3]: 14.3 ratio
- apical domain:HSA (CD71 apical domain [4]): 1.3 ratio
B4: SEQ ID NO 232 (designed binder, not shown: small tags and cut ends)
chain: B3 chain with L47Y, W49D, Q82T

- RLU [1]: 1.97e+06 RLU
- RLU (CD71 apical domain [2]): 3.19e+06 RLU
- hCD71:HSA [3]: 63.8 ratio
- apical domain:HSA (CD71 apical domain [4]): 103 ratio
B5: SEQ ID NO 243 (designed binder, not shown: small tags and cut ends)
chain: MLPAPKNLVVSRVTEDSARLSWTAPDAAFDSFFIGYLEPQPPGEAIHLAVPGSERSYDLTGLKPGTEYNVTIQGVKGGFPSVPLAAVFTT

- RLU [1]: 2.38e+06 RLU
- RLU (CD71 apical domain [2]): 5.69e+06 RLU
- hCD71:HSA [3]: 91.6 ratio
- apical domain:HSA (CD71 apical domain [4]): 219 ratio
B6: SEQ ID NO 203 (designed binder, not shown: small tags and cut ends)
chain: B5 chain with H47V, A49L, V87F

- RLU [1]: 2.51e+06 RLU
- RLU (CD71 apical domain [2]): 5.73e+06 RLU
- hCD71:HSA [3]: 96.1 ratio
- apical domain:HSA (CD71 apical domain [4]): 220 ratio
B7: SEQ ID NO 251 (designed binder, not shown: small tags and cut ends)
chain: B5 chain with H47G, A49W, V82D, A85Q

- RLU [1]: 2.81e+06 RLU
- RLU (CD71 apical domain [2]): 150000 RLU
- hCD71:HSA [3]: 18.1 ratio
- apical domain:HSA (CD71 apical domain [4]): 1 ratio
B8: SEQ ID NO 205 (designed binder, not shown: small tags and cut ends)
chain: MLPAPKNLVVSRVTEDSARLSWTAPDAAFDSFFIGYLEPQPPGEAILLGVPGSERSYDLTGLKPGTEYNVTIQGVKGGFPSMPLHPLVALFTT

- RLU [1]: 3.32e+06 RLU
- RLU (CD71 apical domain [2]): 6.49e+06 RLU
- hCD71:HSA [3]: 51.6 ratio
- apical domain:HSA (CD71 apical domain [4]): 101 ratio
B9: SEQ ID NO 270 (designed binder, not shown: small tags and cut ends)
chain: MLPAPKNLVVSRVTEDSARLSWTAPDAAFDSFAIEYCETKMCGEAIVLTVPGSERSYDLTGLKPGTEYRVPIPGVKGGTASLPLSAIFTT

- RLU [1]: 368000 RLU
- RLU (CD71 apical domain [2]): 4.32e+06 RLU
- hCD71:HSA [3]: 15.1 ratio
- apical domain:HSA (CD71 apical domain [4]): 177 ratio
B10: SEQ ID NO 264 (designed binder, not shown: small tags and cut ends)
chain: MLPAPKNLVVSRVTEDSARLSWTAPDAAFDSFYIAYAEPRPDGEAINLSVPGSERSYDLTGLKPGTEYSVLIHGVKGGLLSSPLDAYFTT

- RLU [1]: 418000 RLU
- RLU (CD71 apical domain [2]): 4.23e+06 RLU
- hCD71:HSA [3]: 11.6 ratio
- apical domain:HSA (CD71 apical domain [4]): 117 ratio
B11: SEQ ID NO 266 (designed binder, not shown: small tags and cut ends)
chain: B10 chain with N47R, S49Q, D85G, Y87S

- RLU [1]: 5.77e+06 RLU
- RLU (CD71 apical domain [2]): 7.21e+06 RLU
- hCD71:HSA [3]: 188 ratio
- apical domain:HSA (CD71 apical domain [4]): 235 ratio
B12: SEQ ID NO 265 (designed binder, not shown: small tags and cut ends)
chain: B10 chain with N47V, S49E, D85T, Y87S

- RLU [1]: 573000 RLU
- RLU (CD71 apical domain [2]): 5.55e+06 RLU
- hCD71:HSA [3]: 19.2 ratio
- apical domain:HSA (CD71 apical domain [4]): 186 ratio
B13: SEQ ID NO 267 (designed binder, not shown: small tags and cut ends)
chain: B10 chain with N47G, S49W, D85V

- RLU [1]: 812000 RLU
- RLU (CD71 apical domain [2]): 5.56e+06 RLU
- hCD71:HSA [3]: 40.8 ratio
- apical domain:HSA (CD71 apical domain [4]): 279 ratio
B14: SEQ ID NO 269 (designed binder, not shown: small tags and cut ends)
chain: B10 chain with N47W, S49D
